# Measurements taken from patent US20220332804A1 (CSL INNOVATION, published 2022).
# Key:
# Assay in all cases: SPR; KD relative to WT C2;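 further: biacore SPR at 37 °C, anti-C2 mAbs captured on an anti-human IgG chip, alanine or serine C2 surface mutants tested, KD from 1:1 fit compared with wild-type C2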
# human C2 T317A = target: T1, human C2 T317A (human, UniProt P06681 21-752)
# T1 sequence: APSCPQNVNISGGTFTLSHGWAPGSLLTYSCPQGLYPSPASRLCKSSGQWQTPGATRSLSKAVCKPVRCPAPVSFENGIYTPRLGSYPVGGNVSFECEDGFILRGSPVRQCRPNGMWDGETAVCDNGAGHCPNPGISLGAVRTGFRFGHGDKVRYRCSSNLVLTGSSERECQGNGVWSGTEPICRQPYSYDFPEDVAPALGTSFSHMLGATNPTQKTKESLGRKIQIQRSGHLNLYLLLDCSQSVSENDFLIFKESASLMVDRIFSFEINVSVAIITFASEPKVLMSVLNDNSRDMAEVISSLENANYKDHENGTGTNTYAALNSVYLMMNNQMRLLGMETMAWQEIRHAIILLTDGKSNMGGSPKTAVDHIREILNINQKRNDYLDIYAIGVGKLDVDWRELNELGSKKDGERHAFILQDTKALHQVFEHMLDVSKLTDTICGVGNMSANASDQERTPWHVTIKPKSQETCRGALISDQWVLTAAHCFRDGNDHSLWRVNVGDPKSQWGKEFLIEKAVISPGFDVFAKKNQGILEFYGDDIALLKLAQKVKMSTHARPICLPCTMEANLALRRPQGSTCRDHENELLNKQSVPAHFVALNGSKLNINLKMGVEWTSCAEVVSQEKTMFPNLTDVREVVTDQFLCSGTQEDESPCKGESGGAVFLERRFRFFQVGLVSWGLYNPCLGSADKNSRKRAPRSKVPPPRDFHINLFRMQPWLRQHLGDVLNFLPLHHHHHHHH
# human C2 N268A = target: T2, human C2 N268A (human, UniProt P06681 21-752)
# T2 sequence: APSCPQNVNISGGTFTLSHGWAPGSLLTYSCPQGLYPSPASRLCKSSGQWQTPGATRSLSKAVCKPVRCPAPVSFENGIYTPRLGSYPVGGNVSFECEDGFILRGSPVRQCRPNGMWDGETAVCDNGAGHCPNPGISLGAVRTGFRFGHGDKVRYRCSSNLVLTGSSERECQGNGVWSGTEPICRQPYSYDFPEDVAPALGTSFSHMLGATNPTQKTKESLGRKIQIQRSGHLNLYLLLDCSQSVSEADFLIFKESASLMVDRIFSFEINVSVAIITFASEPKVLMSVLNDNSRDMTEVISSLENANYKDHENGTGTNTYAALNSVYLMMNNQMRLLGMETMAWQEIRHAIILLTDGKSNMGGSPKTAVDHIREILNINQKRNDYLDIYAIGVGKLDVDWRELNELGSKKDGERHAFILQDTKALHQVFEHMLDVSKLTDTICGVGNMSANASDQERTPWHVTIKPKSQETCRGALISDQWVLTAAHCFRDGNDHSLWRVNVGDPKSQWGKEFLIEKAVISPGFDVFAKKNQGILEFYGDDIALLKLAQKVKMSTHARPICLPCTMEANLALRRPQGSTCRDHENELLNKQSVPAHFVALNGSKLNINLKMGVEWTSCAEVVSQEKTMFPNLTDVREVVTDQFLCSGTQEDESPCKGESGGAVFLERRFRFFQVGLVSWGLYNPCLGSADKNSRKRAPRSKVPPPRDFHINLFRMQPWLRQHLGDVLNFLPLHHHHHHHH
# human C2 L620A = target: T3, human C2 L620A (human, UniProt P06681 21-752)
# T3 sequence: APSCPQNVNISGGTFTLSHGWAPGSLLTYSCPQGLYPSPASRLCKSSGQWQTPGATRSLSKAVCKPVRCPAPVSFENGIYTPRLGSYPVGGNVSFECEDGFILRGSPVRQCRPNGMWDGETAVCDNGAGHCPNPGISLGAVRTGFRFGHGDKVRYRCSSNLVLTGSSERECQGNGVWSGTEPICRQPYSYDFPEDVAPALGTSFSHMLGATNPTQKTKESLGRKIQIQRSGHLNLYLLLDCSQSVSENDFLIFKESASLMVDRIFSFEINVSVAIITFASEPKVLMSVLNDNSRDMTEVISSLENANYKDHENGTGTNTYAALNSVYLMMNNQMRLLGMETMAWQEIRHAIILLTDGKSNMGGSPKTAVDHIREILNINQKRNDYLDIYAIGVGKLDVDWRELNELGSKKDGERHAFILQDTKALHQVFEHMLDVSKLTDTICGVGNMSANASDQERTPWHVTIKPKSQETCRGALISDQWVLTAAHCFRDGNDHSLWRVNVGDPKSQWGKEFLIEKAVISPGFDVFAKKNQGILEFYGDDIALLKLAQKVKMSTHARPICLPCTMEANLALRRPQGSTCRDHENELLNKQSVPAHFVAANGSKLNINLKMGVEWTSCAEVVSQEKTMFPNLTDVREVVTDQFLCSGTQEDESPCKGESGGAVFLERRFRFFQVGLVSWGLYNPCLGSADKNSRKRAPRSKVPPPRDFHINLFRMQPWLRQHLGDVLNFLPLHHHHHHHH
# human complement C2 = target: T4, human complement C2 (human, UniProt P06681 21-752)
# T4 construct: Recombinant full-length human C2 with C-terminal 8x His tag, purified from Expi293F supernatant; also called human C2; huC2
# T4 sequence: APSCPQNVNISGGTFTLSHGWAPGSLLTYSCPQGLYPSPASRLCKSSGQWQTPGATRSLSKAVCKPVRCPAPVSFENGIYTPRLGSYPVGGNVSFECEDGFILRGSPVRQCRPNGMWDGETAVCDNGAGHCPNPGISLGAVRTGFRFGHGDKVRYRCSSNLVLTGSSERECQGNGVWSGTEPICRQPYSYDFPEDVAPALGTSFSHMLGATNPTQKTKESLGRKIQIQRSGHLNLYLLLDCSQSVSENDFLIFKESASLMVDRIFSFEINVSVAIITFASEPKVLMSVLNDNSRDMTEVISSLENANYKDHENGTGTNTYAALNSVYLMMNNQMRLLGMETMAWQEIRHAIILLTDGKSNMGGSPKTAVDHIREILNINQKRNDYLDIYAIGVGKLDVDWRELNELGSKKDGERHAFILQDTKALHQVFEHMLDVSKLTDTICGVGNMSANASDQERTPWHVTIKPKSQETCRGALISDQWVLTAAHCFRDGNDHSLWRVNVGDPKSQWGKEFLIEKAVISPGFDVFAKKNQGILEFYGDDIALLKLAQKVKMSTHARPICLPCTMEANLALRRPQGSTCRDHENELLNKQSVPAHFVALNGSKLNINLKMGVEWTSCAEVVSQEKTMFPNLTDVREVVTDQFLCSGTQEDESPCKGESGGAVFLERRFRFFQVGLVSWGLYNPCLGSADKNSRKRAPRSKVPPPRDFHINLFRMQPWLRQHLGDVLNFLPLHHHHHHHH
binder,measurement,setting,value
"RF16-214 (antibody, V domains shown) VH: EVQLLESGGGLVQPGGSLRLSCAASGFTFSWYQMMWVRQAPGKGLEWVSRIYPSGGGTAYADSVKGRFTISRDNSKNTLYLQMNSLRAEDTAVYYCARDAGYGDNWGQGTLVTVSS VL: QSALTQPPSVSVSPGQTASITCSGDKLGEKYASWYQQKAGQSPVMVIYQDRKRPSGIPERFSGSNSGNTATLTISGTQAMDEADYYCQAWDTRAVVFGGGTKLTVLG",Fold diff,human C2 T317A,1 fold
same,Fold diff,human C2 N268A,2 fold
same,Fold diff,human C2 L620A,1 fold
same,Fold diff,human complement C2,1 fold
